In article PMC5080453, “Structural characterization of twisted gastrulation provides insights into opposing functions on the BMP signalling pathway” (Matrix Biology, 2016) one finds Kd data, which are given here for 3 molecules.

The labels stand for the following.
T1: ΔN-chordin (human chordin construct lacking the N-terminal part) (human, UniProt Q9H2X0 129-955)
T1 construct: chordin, human, ΔN-chordin: partially cleaved chordin fragment lacking the N-terminus and containing the C-terminal vWC domains; source: HEK 293-EBNA cells, as previously described [13]
T1 sequence (looked up): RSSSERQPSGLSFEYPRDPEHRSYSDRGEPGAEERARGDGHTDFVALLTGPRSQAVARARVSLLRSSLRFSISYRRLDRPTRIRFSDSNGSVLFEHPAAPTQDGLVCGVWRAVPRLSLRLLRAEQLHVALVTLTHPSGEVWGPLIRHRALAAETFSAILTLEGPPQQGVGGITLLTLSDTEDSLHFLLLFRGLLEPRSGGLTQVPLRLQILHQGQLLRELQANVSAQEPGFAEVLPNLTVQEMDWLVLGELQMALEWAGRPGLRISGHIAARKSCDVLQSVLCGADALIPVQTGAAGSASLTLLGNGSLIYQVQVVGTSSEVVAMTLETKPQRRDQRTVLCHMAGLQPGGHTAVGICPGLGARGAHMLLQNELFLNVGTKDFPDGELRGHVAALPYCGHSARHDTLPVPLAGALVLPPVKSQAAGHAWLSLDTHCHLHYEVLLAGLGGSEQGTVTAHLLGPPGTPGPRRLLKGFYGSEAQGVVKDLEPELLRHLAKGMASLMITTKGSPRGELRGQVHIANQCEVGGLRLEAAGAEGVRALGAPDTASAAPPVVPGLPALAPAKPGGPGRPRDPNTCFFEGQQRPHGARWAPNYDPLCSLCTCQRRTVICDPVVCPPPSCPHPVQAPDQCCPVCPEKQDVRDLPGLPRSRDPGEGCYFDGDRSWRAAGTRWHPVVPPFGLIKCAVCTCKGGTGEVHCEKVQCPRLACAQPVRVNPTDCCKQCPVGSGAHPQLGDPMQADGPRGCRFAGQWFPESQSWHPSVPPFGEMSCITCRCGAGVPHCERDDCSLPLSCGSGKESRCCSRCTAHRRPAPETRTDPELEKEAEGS

B1: chordin vWC2–3 (residues 701–860) (domain or fragment, human, UniProt Q9H2X0 701-860, looked up)
chain: DPNTCFFEGQQRPHGARWAPNYDPLCSLCTCQRRTVICDPVVCPPPSCPHPVQAPDQCCPVCPEKQDVRDLPGLPRSRDPGEGCYFDGDRSWRAAGTRWHPVVPPFGLIKCAVCTCKGGTGEVHCEKVQCPRLACAQPVRVNPTDCCKQCPVGSGAHPQL
notes: chordin, human, vWC2–3, residues 701–860, generated by PCR from full-length human chordin; thrombin cleavage site before the C-terminal His6 tag
B2: human twisted gastrulation (Tsg), native (glycosylated) (natural protein, UniProt Q9GZX9 26-223, looked up)
chain: CNKALCASDVSKCLIQELCQCRPGEGNCSCCKECMLCLGALWDECCDCVGMCNPRNYSDTPPTSKSTVEELHEPIPSLFRALTEGDTQLNWNIVSFPVAEELSHHENLVSFLETVNQPHHQNVSVPSNNVHAPYSSDKEHMCTVVYFDDCMSIHQCKISCESMGASKYRWFHNACCECIGPECIDYGSKTVKCMNCMF
modifications: N-linked glycans (three predicted N-linked glycosylation sites)
notes: twisted gastrulation (Tsg), human, generated by PCR from image clone Q9GZX9; a thrombin cleavage site stands before the C-terminal His6 tag; For MST it was labelled with NT647 (Red-NHS kit); Monomer by MALS, AUC and SAXS; also called native Tsg
B3: chordin vWC1 (residues 50–128) (domain or fragment, human, UniProt Q9H2X0 50-128, looked up)
chain: GCTFGGKVYALDETWHPDLGEPFGVMRCVLCACEAPQWGRRTRGPGRVSCKNIKPECPTPACGQPRQLPGHCCQTCPQE
notes: chordin, human, vWC1, residues 50–128, generated by PCR from full-length human chordin; thrombin cleavage site before the C-terminal His6 tag

Details in all cases: both partners purified
In test [1] the target is B2. The experiment in a line: SPR; ProteOn XPR36, GLC chip; Tsg immobilised by amine coupling (300 RU for ΔN-chordin and vWC2–3, 800 RU for vWC1-4CHRD and vWC1); chordin constructs injected at increasing concentrations; 25 °C, 10 mM HEPES, 150 mM NaCl, 3 mM EDTA, 0.05% Tween-20, pH 7.4, 50 μl/min; ΔN-chordin fitted to a 1:1 Langmuir model, vWC2–3 by equilibrium analysis; triplicate. Background: In SPR one partner is held on a chip, and binding of the other changes the refractive index at the surface.

Test [2] addresses T1, ΔN-chordin (human chordin construct …). Described as above.
The target in test [3] is B2. The experiment in a line: MST; 15 nM NT647-labelled Tsg mixed with serial dilutions of vWC1 from 7 μM; 50 mM Tris, 150 mM NaCl, 10 mM MgCl2, 0.05% Tween-20, pH 7.4; Monolith NT.115Pico, 20% LED, 20% MST power; triplicate.

Take B1: the Kd in test [1] is 26.4 nM. Turning to B2, the Kd in test [2] was 3.08 nM. Consider B3, for which the Kd in test [3] was 322 nM.

A word on the Kd: it is the constant that tells how readily two partners part at equilibrium.
